Experimental data from patent US20190276496A1 (FUNDACI N PARA LA INVESTIGACI N M DICA APLICADA, published 2019).
[ ]: non-standard residue; d: D form.

T1: Foxp3 in murine CD25+ Treg cells (mouse, UniProt Q99JB6 1-417)
T1 sequence (looked up): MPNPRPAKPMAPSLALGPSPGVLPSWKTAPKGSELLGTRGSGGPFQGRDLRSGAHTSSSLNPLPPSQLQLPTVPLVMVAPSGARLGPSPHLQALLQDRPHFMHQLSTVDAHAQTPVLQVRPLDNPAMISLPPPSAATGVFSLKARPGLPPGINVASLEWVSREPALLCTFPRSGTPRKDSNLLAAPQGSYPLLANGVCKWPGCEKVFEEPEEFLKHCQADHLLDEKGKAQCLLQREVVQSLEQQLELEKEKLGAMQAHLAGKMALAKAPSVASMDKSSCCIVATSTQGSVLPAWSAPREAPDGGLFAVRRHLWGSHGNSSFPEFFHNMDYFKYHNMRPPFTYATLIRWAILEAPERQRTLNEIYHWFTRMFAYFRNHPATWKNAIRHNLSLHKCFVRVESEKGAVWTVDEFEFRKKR


What follows are binders tested against human FOXP3 tagged with 6 histidines at the C terminus (human) (UniProt Q9BZS1) (assay: SPR (ProteOn XPR36), FOXP3-6His immobilized on GLM chip, peptide 1-20 µM injected; ratio to p60 (SEQ ID NO: 1)).
Chain of human FOXP3 tagged with 6 histidines at the C terminus (human) (Q9BZS1 other isoform, or with tags, fused parts or gaps): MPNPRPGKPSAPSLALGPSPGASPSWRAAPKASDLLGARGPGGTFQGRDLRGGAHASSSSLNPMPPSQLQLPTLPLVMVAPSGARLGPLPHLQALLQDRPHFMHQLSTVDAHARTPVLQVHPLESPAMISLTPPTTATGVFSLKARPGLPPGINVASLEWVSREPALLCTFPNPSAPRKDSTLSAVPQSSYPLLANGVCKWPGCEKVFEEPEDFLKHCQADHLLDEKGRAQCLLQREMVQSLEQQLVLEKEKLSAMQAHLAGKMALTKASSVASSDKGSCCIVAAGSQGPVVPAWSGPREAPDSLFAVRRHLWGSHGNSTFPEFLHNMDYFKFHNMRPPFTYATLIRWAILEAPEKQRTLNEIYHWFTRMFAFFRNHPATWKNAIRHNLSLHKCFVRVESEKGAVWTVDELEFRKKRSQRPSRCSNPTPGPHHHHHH

| Ratio binding Peptide/p60 (fold change) | Binder |
| --- | --- |
| 1.3 | RDFQSFRKMWVFFAM [peptide of SEQ ID NO: 33] |
| 4 | RDFQKFRKMWPFFAM [peptide of SEQ ID NO: 25] |
| 1.4 | RDFQSFRKMWNFFAM [peptide of SEQ ID NO: 32] |
| 4.9 | Ac-GR[dA]FQ[dA]FRKMWPFFAM-NH2 (SMILES CSCC[C@H](NC(=O)[C@H](C)NC(=O)[C@H](Cc1ccccc1)NC(=O)[C@H](Cc1ccccc1)NC(=O)[C@@H]1CCCN1C(=O)[C@H](Cc1c[nH]c2ccccc12)NC(=O)[C@H](CCSC)NC(=O)[C@H](CCCCN)NC(=O)[C@H](CCCNC(=N)N)NC(=O)[C@H](Cc1ccccc1)NC(=O)[C@@H](C)NC(=O)[C@H](CCC(N)=O)NC(=O)[C@H](Cc1ccccc1)NC(=O)[C@@H](C)NC(=O)[C@H](CCCNC(=N)N)NC(=O)CNC(C)=O)C(N)=O) [peptide of SEQ ID NO: 43] |
| 4.1 | RDFQSFRKMWKFFAM [peptide of SEQ ID NO: 37] |
| 1.3 | RDFQSFRKMWYFFAM [peptide of SEQ ID NO: 35] |
| 3.7 | Ac-GRAFQAFRKMWPFFAM-NH2 [peptide of SEQ ID NO: 41] |
| 21.4 | cyclo(R[dA]FQAFRKMWPFFAM) (SMILES CSCC[C@@H]1NC(=O)[C@H](C)NC(=O)[C@H](Cc2ccccc2)NC(=O)[C@H](Cc2ccccc2)NC(=O)[C@@H]2CCCN2C(=O)[C@H](Cc2c[nH]c3ccccc23)NC(=O)[C@H](CCSC)NC(=O)[C@H](CCCCN)NC(=O)[C@H](CCCNC(=N)N)NC(=O)[C@H](Cc2ccccc2)NC(=O)[C@H](C)NC(=O)[C@H](CCC(N)=O)NC(=O)[C@H](Cc2ccccc2)NC(=O)[C@@H](C)NC(=O)[C@H](CCCNC(=N)N)NC1=O) [peptide of SEQ ID NO: 51] |
| 3.2 | RDFQNFRKMWPFFAM [peptide of SEQ ID NO: 21] |
| 2.2 | Ac-GRDFQSFRKMW[dA]FFAM-NH2 (SMILES CSCC[C@H](NC(=O)[C@H](C)NC(=O)[C@H](Cc1ccccc1)NC(=O)[C@H](Cc1ccccc1)NC(=O)[C@@H](C)NC(=O)[C@H](Cc1c[nH]c2ccccc12)NC(=O)[C@H](CCSC)NC(=O)[C@H](CCCCN)NC(=O)[C@H](CCCNC(=N)N)NC(=O)[C@H](Cc1ccccc1)NC(=O)[C@H](CO)NC(=O)[C@H](CCC(N)=O)NC(=O)[C@H](Cc1ccccc1)NC(=O)[C@H](CC(=O)O)NC(=O)[C@H](CCCNC(=N)N)NC(=O)CNC(C)=O)C(N)=O) [peptide of SEQ ID NO: 40] |
| 3.2 | Ac-GRAFQSFRKMWPFFAM-NH2 [peptide of SEQ ID NO: 13] |
| 3.3 | Ac-GRDFQ[dA]FRKMWPFFAM-NH2 (SMILES CSCC[C@H](NC(=O)[C@H](C)NC(=O)[C@H](Cc1ccccc1)NC(=O)[C@H](Cc1ccccc1)NC(=O)[C@@H]1CCCN1C(=O)[C@H](Cc1c[nH]c2ccccc12)NC(=O)[C@H](CCSC)NC(=O)[C@H](CCCCN)NC(=O)[C@H](CCCNC(=N)N)NC(=O)[C@H](Cc1ccccc1)NC(=O)[C@@H](C)NC(=O)[C@H](CCC(N)=O)NC(=O)[C@H](Cc1ccccc1)NC(=O)[C@H](CC(=O)O)NC(=O)[C@H](CCCNC(=N)N)NC(=O)CNC(C)=O)C(N)=O) [peptide of SEQ ID NO: 39] |
| 1.9 | RDLQSFRKMWPFFAM [peptide of SEQ ID NO: 18] |
| 2.2 | cyclo(R[dA]FQAFRKMWPFFAM) (SMILES CSCC[C@@H]1NC(=O)[C@H](C)NC(=O)[C@H](Cc2ccccc2)NC(=O)[C@H](Cc2ccccc2)NC(=O)[C@@H]2CCCN2C(=O)[C@H](Cc2c[nH]c3ccccc23)NC(=O)[C@H](CCSC)NC(=O)[C@H](CCCCN)NC(=O)[C@H](CCCNC(=N)N)NC(=O)[C@H](Cc2ccccc2)NC(=O)[C@H](C)NC(=O)[C@H](CCC(N)=O)NC(=O)[C@H](Cc2ccccc2)NC(=O)[C@@H](C)NC(=O)[C@H](CCCNC(=N)N)NC1=O) [peptide of SEQ ID NO: 53] |
| 1.4 | RWFQSFRKMWPFFAM [peptide of SEQ ID NO: 9] |
| 3 | Ac-GRAFQSFRKMWAFFAM-NH2 [peptide of SEQ ID NO: 44] |
| 3.7 | RDWQSFRKMWPFFAM [peptide of SEQ ID NO: 16] |
| 4.1 | H-RAFQAFRKMWPFFAM-OH [peptide of SEQ ID NO: 42] |
| 13 | cyclo(R[dA]FQAFRKMWPFFAM) (SMILES CSCC[C@@H]1NC(=O)[C@H](C)NC(=O)[C@H](Cc2ccccc2)NC(=O)[C@H](Cc2ccccc2)NC(=O)[C@@H]2CCCN2C(=O)[C@H](Cc2c[nH]c3ccccc23)NC(=O)[C@H](CCSC)NC(=O)[C@H](CCCCN)NC(=O)[C@H](CCCNC(=N)N)NC(=O)[C@H](Cc2ccccc2)NC(=O)[C@H](C)NC(=O)[C@H](CCC(N)=O)NC(=O)[C@H](Cc2ccccc2)NC(=O)[C@@H](C)NC(=O)[C@H](CCCNC(=N)N)NC1=O) [peptide of SEQ ID NO: 52] |

More lines, now with the values behind:

| Binder | Ratio binding Peptide/p60 (fold change) |
| --- | --- |
| RDFQWFRKMWPFFAM [peptide of SEQ ID NO: 22] | 2.4 |
| RDFQSFRRMWPFFAM [peptide of SEQ ID NO: 29] | 1.4 |
| RKFQSFRKMWPFFAM [peptide of SEQ ID NO: 12] | 2.2 |
| RDYQSFRKMWPFFAM [peptide of SEQ ID NO: 17] | 3.3 |
| cyclo(R[dA]FQAFRKMWPFFAM) (SMILES CSCC[C@@H]1NC(=O)[C@H](C)NC(=O)[C@H](Cc2ccccc2)NC(=O)[C@H](Cc2ccccc2)NC(=O)[C@@H]2CCCN2C(=O)[C@H](Cc2c[nH]c3ccccc23)NC(=O)[C@H](CCSC)NC(=O)[C@H](CCCCN)NC(=O)[C@H](CCCNC(=N)N)NC(=O)[C@H](Cc2ccccc2)NC(=O)[C@H](C)NC(=O)[C@H](CCC(N)=O)NC(=O)[C@H](Cc2ccccc2)NC(=O)[C@@H](C)NC(=O)[C@H](CCCNC(=N)N)NC1=O) [peptide of SEQ ID NO: 54] | 25.3 |
| RDFQEFRKMWPFFAM [peptide of SEQ ID NO: 23] | 1.3 |
| H-R[dA]FQSFRKMWPFFAM-OH [peptide of SEQ ID NO: 6] | 3.3 |
| RYFQSFRKMWPFFAM [peptide of SEQ ID NO: 8] | 1.4 |
| RDFQSFRHMWPFFAM [peptide of SEQ ID NO: 28] | 2.6 |
| RDFQSFRKMWPFFAM (head-to-tail cyclic: linker L is C(=O) between the N-terminal amino group of residue 1 and the alpha carbon of residue 15) [peptide of SEQ ID NO: 49] | 5 |
| RDFQSFRKMWRFFAM [peptide of SEQ ID NO: 31] | 2.8 |
| RSFQSFRKMWPFFAM [peptide of SEQ ID NO: 7] | 1.4 |
| RNFQSFRKMWPFFAM [peptide of SEQ ID NO: 11] | 1.4 |
| RDFQRFRKMWPFFAM [peptide of SEQ ID NO: 20] | 3.7 |
| RDFQYFRKMWPFFAM [peptide of SEQ ID NO: 24] | 4.6 |
| Ac-GRDFQSFRKMWAFFA[dM]-NH2 (SMILES CSCC[C@H](NC(=O)[C@H](CCCCN)NC(=O)[C@H](CCCNC(=N)N)NC(=O)[C@H](Cc1ccccc1)NC(=O)[C@H](CO)NC(=O)[C@H](CCC(N)=O)NC(=O)[C@H](Cc1ccccc1)NC(=O)[C@H](CC(=O)O)NC(=O)[C@H](CCCNC(=N)N)NC(=O)CNC(C)=O)C(=O)N[C@@H](Cc1c[nH]c2ccccc12)C(=O)N[C@@H](C)C(=O)N[C@@H](Cc1ccccc1)C(=O)N[C@@H](Cc1ccccc1)C(=O)N[C@@H](C)C(=O)N[C@H](CCSC)C(N)=O) [peptide of SEQ ID NO: 38] | 1.1 |

The binders below were run against T1, Foxp3 in murine CD25+ Treg cells (assay: cell-based or functional assay).

| IC50 (µM) of inhibition of Treg activity, in vitro Treg suppression assay (murine Tconv + Treg, anti-CD3, [3H]-thymidine) [µM] | Binder |
| --- | --- |
| 1.9 | Ac-GRAFQAFRKMWPFFAM-NH2 [peptide of SEQ ID NO: 41] |
| 12.5 | Ac-GRAFQSFRKMWPFFAM-NH2 [peptide of SEQ ID NO: 13] |
